Reference: the supplement of paper PMC10724198
± gives the standard deviation of the averaged measurements.
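Also: PSI is a weighted mean of sequencing reads over stability bins, variants kept only with over 10 reads, mCherry proximal and sfGFP distal, peptide attached via GGGS linker.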

These sequences were tested on Saccharomyces cerevisiae (assay: protein stability index of tFT-peptide fusion (C-terminal peptide) (PSI (0-1 scale)); higher = more stable (slower turnover)). Settings: genetic background: cdc34-1; temperature: 37 C.
Protocol: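 MPS profiling in S. cerevisiae of the tFT-X12 degron library: putative degron peptides plus stable controls, 12 aa, fused to the C-terminus of a sfGFP-mCherry timer. Cells are FACS-sorted into 8 mCherry/sfGFP bins and deep-sequenced. PSI runs from 0 (unstable) to 1 (stable). Backgrounds are wild type, das1Δ and doa10Δ at 30 °C, and wild type, das1Δ, cdc34-1 and cdc53-1 at 37 °C; 2-3 technical replicates each.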
GVKSQLYSFVWF showed a protein stability index of 0.6552 ± 0.0036. GVRCRLVIRVLG was tested, and the protein stability index was 0.47 ± 0.035. GVSFLFVGVSLV gave a protein stability index of 0.469 ± 0.065. For GVVCWVVVFGGW, the protein stability index was 0.307 ± 0.029. GVWSLDWFLLVW was tested, and the protein stability index was 0.0785 ± 0.021. GWFCLFFVVSTG showed a protein stability index of 0.213 ± 0.034. Work on GWIFFYFTWFVG yielded a protein stability index of 0.127 ± 0.018. GWLSVLVYFLSG showed a protein stability index of 0.471 ± 0.025. GWVSCCVWSFLV was tested, and the protein stability index was 0.243 ± 0.028. Sequence HALCLSVYVSAH has a protein stability index of 0.265 ± 0.0049. HCLLQDVPPTLH was tested, and the protein stability index was 0.641 ± 0.026. In the case of HCNRRNKIYWYS, the protein stability index is reported as 0.6116 ± 0.00076. HILRLVYFIVYE gave a protein stability index of 0.402 ± 0.01. HLYCYNILLVSG gave a protein stability index of 0.2001 ± 0.00066. HSPRVLLPLYFR gave a protein stability index of 0.199 ± 0.064. Work on ICFPLQIFRILV yielded a protein stability index of 0.408 ± 0.013. With IEVGVAILLLGE the protein stability index was 0.646 ± 0.042. For IFFSLFFFFLCN, the protein stability index was 0.353 ± 0.06. IGLSIWSVVSAL gave a protein stability index of 0.652 ± 0.042. In the case of IILGVRQIEVNS, the protein stability index is reported as 0.488 ± 0.012. In the case of IKSIKQNKIKTI, the protein stability index is reported as 0.619 ± 0.051. IKTKGRYKKQRT gave a protein stability index of 0.632 ± 0.051. In the case of ILFIVSSCGCVG, the protein stability index is reported as 0.543 ± 0.031. For ILISVNRVVLYC, the protein stability index was 0.364 ± 0.016. ILRKTAFRLRVL showed a protein stability index of 0.623 ± 0.047. In the case of IMWCSSVSEVQW, the protein stability index is reported as 0.538 ± 0.075. Sequence IPFRRCFWFFWV has a protein stability index of 0.537 ± 0.029. With ISSYKFLRIVLV the protein stability index was 0.384 ± 0.01. For ISVSFSVIFFLL, the protein stability index was 0.266 ± 0.0073. In the case of IWIRLGSENTVI, the protein stability index is reported as 0.7085 ± 0.0014. IWWFKELRVCRV was tested, and the protein stability index was 0.506 ± 0.014. IYFFFFALHFPN showed a protein stability index of 0.498 ± 0.083. KAIILGNIKINF showed a protein stability index of 0.729 ± 0.018.

Same assay, conditions: genetic background: cdc53-1; temperature: 37 C
GVKSQLYSFVWF showed a protein stability index of 0.74 ± 0.015. GVRCRLVIRVLG showed a protein stability index of 0.508 ± 0.0085. In the case of GVSFLFVGVSLV, the protein stability index is reported as 0.499 ± 0.01. GVVCWVVVFGGW was tested, and the protein stability index was 0.5008 ± 0.0019. GVWSLDWFLLVW showed a protein stability index of 0.187 ± 0.026. For GWFCLFFVVSTG, the protein stability index was 0.3162 ± 0.0016. With GWIFFYFTWFVG the protein stability index was 0.236 ± 0.025. For GWLSVLVYFLSG, the protein stability index was 0.545 ± 0.03. Sequence GWVSCCVWSFLV has a protein stability index of 0.5924 ± 0.0053. Sequence HALCLSVYVSAH has a protein stability index of 0.304 ± 0.022. HCLLQDVPPTLH gave a protein stability index of 0.6925 ± 0.0062. Sequence HCNRRNKIYWYS has a protein stability index of 0.73 ± 0.012. Sequence HILRLVYFIVYE has a protein stability index of 0.533 ± 0.028. HSPRVLLPLYFR showed a protein stability index of 0.133 ± 0.013. Work on ICFPLQIFRILV yielded a protein stability index of 0.46 ± 0.019. IEVGVAILLLGE showed a protein stability index of 0.668 ± 0.0081. Sequence IFFSLFFFFLCN has a protein stability index of 0.413 ± 0.0066. For IGLSIWSVVSAL, the protein stability index was 0.689 ± 0.015. In the case of IILGVRQIEVNS, the protein stability index is reported as 0.517 ± 0.031. With IKSIKQNKIKTI the protein stability index was 0.648 ± 0.021. In the case of IKTKGRYKKQRT, the protein stability index is reported as 0.709 ± 0.01. Work on ILFIVSSCGCVG yielded a protein stability index of 0.557 ± 0.039. For ILISVNRVVLYC, the protein stability index was 0.4123 ± 0.0011. ILRKTAFRLRVL gave a protein stability index of 0.635 ± 0.0073. IMWCSSVSEVQW gave a protein stability index of 0.582 ± 0.0064. Sequence IPFRRCFWFFWV has a protein stability index of 0.7 ± 0.011. For ISSYKFLRIVLV, the protein stability index was 0.435 ± 0.0053. Work on ISVSFSVIFFLL yielded a protein stability index of 0.398 ± 0.019. Sequence IWIRLGSENTVI has a protein stability index of 0.7221 ± 0.007. IWWFKELRVCRV showed a protein stability index of 0.559 ± 0.013. IYFFFFALHFPN gave a protein stability index of 0.521 ± 0.013. With KAIILGNIKINF the protein stability index was 0.744 ± 0.016.

Same assay, conditions: genetic background: das1 deletion; temperature: 30 C
GVKSQLYSFVWF was tested, and the protein stability index was 0.633 ± 0.023. For GVRCRLVIRVLG, the protein stability index was 0.286 ± 0.016. With GVSFLFVGVSLV the protein stability index was 0.34 ± 0.031. Sequence GVVCWVVVFGGW has a protein stability index of 0.281 ± 0.029. For GVWSLDWFLLVW, the protein stability index was 0.158 ± 0.016. For GWFCLFFVVSTG, the protein stability index was 0.225 ± 0.024. GWIFFYFTWFVG gave a protein stability index of 0.198 ± 0.028. With GWLSVLVYFLSG the protein stability index was 0.387 ± 0.034. GWVSCCVWSFLV gave a protein stability index of 0.531 ± 0.016. In the case of HALCLSVYVSAH, the protein stability index is reported as 0.249 ± 0.031. HCLLQDVPPTLH gave a protein stability index of 0.711 ± 0.051. With HCNRRNKIYWYS the protein stability index was 0.689 ± 0.063. Sequence HILRLVYFIVYE has a protein stability index of 0.316 ± 0.044. In the case of HLYCYNILLVSG, the protein stability index is reported as 0.306 ± 0.04. In the case of HSPRVLLPLYFR, the protein stability index is reported as 0.301 ± 0.035. Sequence ICFPLQIFRILV has a protein stability index of 0.348 ± 0.021. IEVGVAILLLGE showed a protein stability index of 0.551 ± 0.03. IFFSLFFFFLCN showed a protein stability index of 0.356 ± 0.027. Sequence IGLSIWSVVSAL has a protein stability index of 0.535 ± 0.016. For IILGVRQIEVNS, the protein stability index was 0.358 ± 0.029. With IKSIKQNKIKTI the protein stability index was 0.653 ± 0.029. Work on IKTKGRYKKQRT yielded a protein stability index of 0.679 ± 0.049. ILFIVSSCGCVG showed a protein stability index of 0.445 ± 0.037. Sequence ILISVNRVVLYC has a protein stability index of 0.289 ± 0.027. Sequence ILRKTAFRLRVL has a protein stability index of 0.525 ± 0.011. For IMWCSSVSEVQW, the protein stability index was 0.472 ± 0.027. For IPFRRCFWFFWV, the protein stability index was 0.593 ± 0.035. Work on ISSYKFLRIVLV yielded a protein stability index of 0.335 ± 0.026. With ISVSFSVIFFLL the protein stability index was 0.372 ± 0.019. In the case of IWIRLGSENTVI, the protein stability index is reported as 0.646 ± 0.036. With IWWFKELRVCRV the protein stability index was 0.435 ± 0.022. In the case of IYFFFFALHFPN, the protein stability index is reported as 0.366 ± 0.054. KAIILGNIKINF gave a protein stability index of 0.6368 ± 0.0023.

Same assay, conditions: genetic background: das1 deletion; temperature: 37 C
With GVKSQLYSFVWF the protein stability index was 0.747 ± 0.013. GVRCRLVIRVLG showed a protein stability index of 0.516 ± 0.0056. Sequence GVSFLFVGVSLV has a protein stability index of 0.5503 ± 0.0019. GVVCWVVVFGGW showed a protein stability index of 0.512 ± 0.0065. For GVWSLDWFLLVW, the protein stability index was 0.223 ± 0.0023. In the case of GWFCLFFVVSTG, the protein stability index is reported as 0.4003 ± 0.0021. In the case of GWIFFYFTWFVG, the protein stability index is reported as 0.319 ± 0.017. GWLSVLVYFLSG gave a protein stability index of 0.5619 ± 0.0042. With GWVSCCVWSFLV the protein stability index was 0.663 ± 0.0083. For HALCLSVYVSAH, the protein stability index was 0.397 ± 0.018. Work on HCLLQDVPPTLH yielded a protein stability index of 0.678 ± 0.014. For HCNRRNKIYWYS, the protein stability index was 0.739 ± 0.051. In the case of HILRLVYFIVYE, the protein stability index is reported as 0.504 ± 0.0089. For HLYCYNILLVSG, the protein stability index was 0.419 ± 0.007. For HSPRVLLPLYFR, the protein stability index was 0.365 ± 0.033. ICFPLQIFRILV gave a protein stability index of 0.4919 ± 0.0042. Sequence IEVGVAILLLGE has a protein stability index of 0.6842 ± 0.0029. Sequence IFFSLFFFFLCN has a protein stability index of 0.526 ± 0.068. IGLSIWSVVSAL was tested, and the protein stability index was 0.6826 ± 0.0014. Sequence IILGVRQIEVNS has a protein stability index of 0.526 ± 0.021. For IKSIKQNKIKTI, the protein stability index was 0.699 ± 0.026. IKTKGRYKKQRT showed a protein stability index of 0.743 ± 0.037. ILFIVSSCGCVG showed a protein stability index of 0.5904 ± 0.0013. For ILISVNRVVLYC, the protein stability index was 0.461 ± 0.011. With ILRKTAFRLRVL the protein stability index was 0.658 ± 0.023. With IMWCSSVSEVQW the protein stability index was 0.518 ± 0.0069. In the case of IPFRRCFWFFWV, the protein stability index is reported as 0.6909 ± 0.0044. ISSYKFLRIVLV showed a protein stability index of 0.509 ± 0.022. ISVSFSVIFFLL gave a protein stability index of 0.4778 ± 0.0024. IWIRLGSENTVI gave a protein stability index of 0.7489 ± 0.00087. Sequence IWWFKELRVCRV has a protein stability index of 0.5589 ± 0.0019. With IYFFFFALHFPN the protein stability index was 0.535 ± 0.029. Work on KAIILGNIKINF yielded a protein stability index of 0.714 ± 0.011.
